Assay results published in patent US20130164256A1 (AbbVie / Abbott, published 2013).

Target: Rhesus/Macaque TNF (rhesus/macaque, UniProt P48094 77-233)
Assay: cell-based or functional assay

Sequence of Rhesus/Macaque TNF (rhesus/macaque, UniProt P48094 77-233) (P48094 77-233 limits assumed): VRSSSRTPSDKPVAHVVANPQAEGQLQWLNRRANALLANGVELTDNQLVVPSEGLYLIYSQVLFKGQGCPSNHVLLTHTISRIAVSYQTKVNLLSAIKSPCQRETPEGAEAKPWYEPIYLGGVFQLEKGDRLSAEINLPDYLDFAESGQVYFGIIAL

| rhesus TNF neutralization IC50 (L929 bioassay) [nM] | Binder |
| --- | --- |
| 0.271 | hMAK195-AM22 (antibody, V domains shown) VH: EVQLVESGGGLVQPGGSLRLSCAASGFTFSNYGVTWVRQAPGKGLEWVSMIWADGSTHYASSVKGRFTISRDNSKNTLYLQMNSLRAEDTAVYYCAREWQHGPVAYWGQGTLVTVSS VL: DIQMTQSPSSLSASVGDRVTITCRASQLVSSAVAWYQQKPGKAPKLLIYWASTRHSGVPSRFSGSGSGTDFTLTISSLQPEDFATYYCQQHYRTPFTFGQGTKLEIKR |
| > 150 | hMAK195-AM15 (antibody, V domains shown) VH: EVQLVESGGGLVQPGGSLRLSCAASGFTFSNYGVTWVRQAPGKGLEWVSMIWSDGSTDYASSVKGRFTISRDNSKNTLYLQMNSLRAEDTAVYYCAREWQHGPVAYWGQGTLVTVSS VL: DIQMTQSPSSLSASVGDRVTITCKASQAVSSAVAWYQQKPGKAPKLLIYWASTRHTGVPSRFSGSGSGTDFTLTISSLQPEDFATYYCQQHYSTPFTFGQGTKLEIKR |
| 0.09 | hMAK195-AM21 (antibody, V domains shown) VH: EVQLVESGGGLVQPGGSLRLSCAASGFTFSNYGVTWVRQAPGKGLEWVSMIWADGSTHYASSVKGRFTISRDNSKNTLYLQMNSLRAEDTAVYYCAREWQHGPVAYWGQGTLVTVSS VL: DIQMTQSPSSLSASVGDRVTITCRASQLVSSAVAWYQQKPGKAPKLLIYWASARHTGVPSRFSGSGSGTDFTLTISSLQPEDFATYYCQQHYKTPFTFGQGTKLEIKR |
| 1.21 | hMAK195-AM19 (antibody, V domains shown) VH: EVQLVESGGGLVQPGGSLRLSCAASGFTFSNYGVSWVRQAPGKGLEWVSMIWADGSTHYASSLKGRFTISRDNSKNTLYLQMNSLRAEDTAVYYCAREWQHGPAAYWGQGTLVTVSS VL: DIQMTQSPSSLSASVGDRVTITCKASQAVSSAVAWYQQKPGKAPKLLIYWASTRHTGVPSRFSGSGSGTDFTLTISSLQPEDFATYYCQQHYSTPFTFGQGTKLEIKR |
| 2.63 | hMAK195-AM23 (antibody, V domains shown) VH: EVQLVESGGGLVQPGGSLRLSCAASGFTFSNYGVTWVRQAPGKGLEWVSMIWADGSTHYADSVKSRFTISRDNSKNTLYLQMNSLRAEDTAVYYCAREWQHGPLAYWGQGTLVTVSS VL: DIQMTQSPSSLSASVGDRVTITCRASQLVSSAVAWYQQKPGKAPKLLIYWASTLHSGVPSRFSGSGSGTDFTLTISSLQPEDFATYYCQQHYSTPFTFGQGTKLEIKR |

The next lines start with the binder.

| Binder | rhesus TNF neutralization IC50 (L929 bioassay) [nM] |
| --- | --- |
| hMAK195-AM20 (antibody, V domains shown) VH: EVQLVESGGGLVQPGGSLRLSCAASGFTFSNYGVTWVRQAPGKGLEWVSMIWADGSTHYASSVKGRFTISRDNSKNTLYLQMNSLRAEDTAVYYCAREWQHGPVAYWGQGTLVTVSS VL: DIQMTQSPSSLSASVGDRVTITCKASQLVSSAVAWYQQKPGKAPKLLIYWASTRHTGVPSRFSGSGSGTDFTLTISSLQPEDFATYYCQQHYSTPFTFGQGTKLEIKR | 0.596 |
| hMAK195-AM24 (antibody, V domains shown) VH: EVQLVESGGGLVQPGGSLRLSCAASGFTFSNYGVEWVRQAPGKGLEWVSGIWADGSTHYADTVKSRFTISRDNSKNTLYLQMNSLRAEDTAVYYCAREWQHGPVAYWGQGTLVTVSS VL: DIQMTQSPSSLSASVGDRVTITCKASQLVSSAVAWYQQKPGKAPKLLIYWASTLHTGVPSRFSGSGSGTDFTLTISSLQPEDFATYYCQQHYRTPFTFGQGTKLEIKR | 0.557 |
| hMAK195-AM11 (antibody, V domains shown) VH: EVQLVESGGGLVQPGGSLRLSCAASGFTFSNYGVNWVRQAPGKGLEWVSMIAADGFTDYASSVKGRFTISRDNSKNTLYLQMNSLRAEDTAVYYCAREWHHGPVAYWGQGTLVTVSS VL: DIQMTQSPSSLSASVGDRVTITCKASQAVSSAVAWYQQKPGKAPKLLIYWASTRHTGVPSRFSGSGSGTDFTLTISSLQPEDFATYYCQQHYSTPFTFGQGTKLEIKR | > 25 |
| hMAK195-AM18 (antibody, V domains shown) VH: EVQLVESGGGLVQPGGSLRLSCAASGFTFSNYGVTWVRQAPGKGLEWVSMIWADGSTHYASSVKGRFTISRDNSKNTLYLQMNSLRAEDTAVYYCAREWQHGPSAYWGQGTLVTVSS VL: DIQMTQSPSSLSASVGDRVTITCKASQAVSSAVAWYQQKPGKAPKLLIYWASTRHTGVPSRFSGSGSGTDFTLTISSLQPEDFATYYCQQHYSTPFTFGQGTKLEIKR | 0.441 |
| hMAK195-AM13 (antibody, V domains shown) VH: EVQLVESGGGLVQPGGSLRLSCAASGFTFSNYGVSWVRQAPGKGLEWVSLIRGDGSTDYASSLKGRFTISRDNSKNTLYLQMNSLRAEDTAVYYCAREWHHGPVAYWGQGTLVTVSS VL: DIQMTQSPSSLSASVGDRVTITCKASQAVSSAVAWYQQKPGKAPKLLIYWASTRHTGVPSRFSGSGSGTDFTLTISSLQPEDFATYYCQQHYSTPFTFGQGTKLEIKR | 4.64 |
| hMAK195-AM26 (antibody, V domains shown) VH: EVQLVESGGGLVQPGGSLRLSCAASGFTFSNYGVSWVRQAPGKGLEWVSMIWADGSTHYADTVKGRFTISRDNSKNTLYLQMNSLRAEDTAVYYCAREWQHGPLAYWGQGTLVTVSS VL: DIQMTQSPSSLSASVGDRVTITCRASQLVSSAVAWYQQKPGKAPKLLIYWASTRHTGVPSRFSGSGSGTDFTLTISSLQPEDFATYYCQQHYRTPFTFGQGTKLEIKR | 0.249 |

Target: Rhesus/Macaque TNF (Rhesus/Macaque, UniProt P48094 77-233)
Sequence (P48094 77-233 limits assumed): as the sequence (P48094 77-233 limits assumed) above
Assay: cell-based or functional assay

| Binder | rhesus TNF neutralization IC50 [nM] |
| --- | --- |
| hMAK199-AM5 (antibody, V domains shown) VH: EVQLVQSGAEVKKPGASVKVSCKASGYTFRNYGIIWVRQAPGQGLEWMGWINTYTGKPTYAQKFQGRVTMTTDTSTSTAYMELSSLRSEDTAVYFCARKLFTTVDVTDNAMDYWGQGTTVTVSS VL: DIQMTQSPSSLSASVGDRVTITCRASQDISNYLNWYQQKPGKAPKLLIYYTSRLQSGVPSRFSGSGSGTDYTLTISSLQPEDFATYFCQQGNTWPPTFGQGTKLEIK | 0.02 |
| hMAK199-AM6 (antibody, V domains shown) VH: EVQLVQSGAEVKKPGASVKVSCKASGYTFNNYGINWVRQAPGQGLEWMGWINTYTGKPTYAQKFQGRVTMTTDTSTSTAYMELSSLRSEDTAVYFCARKFRNTVAVTDYAMDYWGQGTTVTVSS VL: DIQMTQSPSSLSASVGDRVTITCRASQDIYDVLNWYQQKPGKAPKLLIYYASRLQSGVPSRFSGSGSGTDFTLTISSLQPEDFATYYCQQGITLPPTFGQGTKLEIK | 0.004 |
| hMAK199-AM9 (antibody, V domains shown) VH: EVQLVQSGAEVKKPGASVKVSCKASGYTFSNYGINWVRQAPGQGLEWMGWINTYTGQPSYAQKFQGRVTMTTDTSTSTAYMELSSLRSEDTAVYYCARKLFKTEAVTDYAMDYWGQGTTVTVSS VL: DIQMTQSPSSLSASVGDRVTITCRASQNIYNVLNWYQQKPGKAPKLLIYYASRLQSGVPSRFSGSGSGTDFTLTISSLQPEDFATYFCQQGNTMPPTFGQGTKLEIK | 0.089 |
| hMAK199-AM2 (antibody, V domains shown) VH: EVQLVQSGAEVKKPGASVKVSCKASGYTFNNYGIIWVRQAPGQGLEWMGWINTYTGKPTYAQKLQGRVTMTTDTSTSTAYMELSSLRSEDTAVYFCARKLFNTVDVTDNAMDYWGQGTTVTVSS VL: DIQMTQSPSSLSASVGDRVTITCRASQDISNYLNWYQQKPGKAPKLLIYYTSRLQSGVPSRFSGSGSGTDYTLTISSLQPEDFATYFCQQGNSWPPTFGQGTKLEIK | 0.01 |
| hMAK199-AM4 (antibody, V domains shown) VH: EVQLVQSGAEVKKPGASVKVSCKASGYTFNNYGIIWVRQAPGQGLEWMGWINTYTGKPTYAQKFQGRVTMTTDTSTSTAYMELSSLRSEDTAVYYCARKLFNTVAVTDNAMDYWGQGTTVTVSS VL: DIQMTQSPSSLSASVGDRVTITCRASQDIENYLNWYQQKPGKAPKLLIYYTSRLQSGVPSRFSGSGSGTDFTLTISSLQPEDFATYFCQQGNTQPPTFGQGTKLEIK | 0.005 |
| hMAK199-AM7 (antibody, V domains shown) VH: EVQLVQSGAEVKKPGASVKVSCKASGYTFRNYGITWVRQAPGQGLEWMGWINTYTGKPTYAQKFQGRVTMTTDTSTSTAYMELSSLRSEDTAVYFCARKLFTTMDVTDNAMDYWGQGTTVTVSS VL: DIQMTQSPSSLSASVGDRVTITCRASQDISNYLNWYQQKPGKAPKLLIYYTSRLQSGVPSRFSGSGSGTDYTLTISSLQPEDFATYFCQQGNTWPPTFGQGTKLEIK | 0.051 |
| hMAK199-AM10 (antibody, V domains shown) VH: EVQLVQSGAEVKKPGASVKVSCKASGYTFNNYGIIWVRQAPGQGLEWMGWINTYSGKPTYAQKFQGRVTMTTDTSTSTAYMELSSLRSEDTAVYFCARKLFTTMDVTDNAMDYWGQGTTVTVSS VL: DIQMTQSPSSLSASVGDRVTITCRASQDISNFLNWYQQKPGKAPKLLIYYTSRLQSGVPSRFSGSGSGTDYTLTISSLQPEDFATYFCQQGNTQPPTFGQGTKLEIK | 0.034 |
| hMAK199-AM3 (antibody, V domains shown) VH: EVQLVQSGAEVKKPGASVKVSCKASGYTFNNYGIIWVRQAPGQGLEWMGWINTYTGVPTYAQKFQGRVTMTTDTSTSTAYMELSSLRSEDTAVYYCARKLFNTVDVTDNAMDYWGQGTTVTVSS VL: DIQMTQSPSSLSASVGDRVTITCRASQDIYNYLNWYQQKPGKAPKLLIYYTSRLQSGVPSRFSGSGSGTDYTLTISSLQPEDFATYFCQQGNTQPPTFGQGTKLEIK | 0.019 |
